Tests used:
[1] = T. maritima C277S/C277T constructs, peracetic acid when bound to bovine enamel (Example 11); assay type: biochemical; conditions: bovine enamel exposed to 10 μM enzyme, 4 washes; 100 mM triacetin, 100 mM H2O2, 30 min, 37° C.; no enzyme 570
Protocol: (§1) The detection of peracetic acid followed the method described in Pinkernell et. al. (Analyst, 1997, 122, 567) using colorimetric detection of 2,2′-azino-bis(3-ethylbenzothiazoline(-6-sulfonate (ABTS) oxidation by peracetic acid. Following the formation of peracetic acid with the addition of triacetin and hydrogen peroxide, 90 μL of solution was added to 10 μL of 0.1 M H3PO4 in a well plate. 50 μL of 1 M acetic acid, 50 μL of 0.5 g/L ABTS and 50 μL of 0.002 g/L of KI was added. The solution was allowed to develop for 5 min. The absorbance of the solution was measured at 405 nm using a microplate reader. The peracetic acid concentration was calculated based on a standard curve developed simultaneously using peracetic acid reagent solution.
The perhydrolase enzymes were also assessed for binding to bovine enamel substrates. Enamel substrates were prepared as described in Example 2 and 3. Each enamel block was hydrated in water for overnight at room temperature (˜22° C.). The enamel blocks were then equilibrated with 10 mM potassium phosphate buffer, pH7.2, for 10 min. The enamel substrates were rinsed 3 times the buffer. The enamel wells were filled with 500 μL of 10 μM enzyme solutions which was prepared by diluting in 10 mM phosphate buffer. The samples were incubated for 30 min with slow shaking at 37° C. The non-binding enzyme was removed by washing 4 times with phosphate buffer. Then, each enamel block was embedded inside a putty filled 24-well plate, with only the enamel top surface exposed. The perhydrolase activity from enamel bound enzyme was measured as described in Example 8. 100 μL reaction mixtures (100 mM phosphate buffer, pH7.2 and 100 mM H2O2 and 100 mM triacetin) was added on top of the enamel and incubated for 30 min at 37° C. A 90 μL aliquot was removed for detection via ABTS oxidation as noted in Example 8. Each sample data point represents an average of 3 independent enamel blocks.

[2] = T. maritima C277S/C277T constructs, peracetic acid in solution (Example 11); assay type: biochemical; conditions: 0.5 μM enzyme, 100 mM triacetin, 100 mM H2O2, pH 7.2, 10 min, 37° C.; no enzyme 114
Protocol: as §1
Perhydrolase enzymes listed in Table 5 were assessed for enzyme activity in solution as described in Example 7. The enzyme activity in solution was measured by making a 500 μl solution of 0.5 μM of each enzyme in 100 mM triacetin, 100 mM H2O2 and 10 mM phosphate buffer, pH 7.2. The solution was incubated for 10 min, at 37° C. After the reaction was stopped by mixing an aliquot with H3PO4, a 10 μL aliquot was removed for proper dilution, and then detected via ABTS oxidation as described in Example 7.

[3] = Peracetic acid generation from hydroxyapatite bound CE-7 perhydrolase fusions (Example 8); assay type: biochemical; conditions: hydroxyapatite particles exposed to 10 μM enzyme, washed; 100 mM triacetin, 100 mM H2O2, 30 min, 37° C.; no enzyme 30-118.8
Protocol: as §1
To assess binding of these constructs to hydroxyapatite, 33 mg of hydroxyapatite particles (Macro-prep Ceramic Hydroxyapatite TYPE I, 80 μm size BioRad, Hercules, Calif.), were washed with 10 mM phosphate buffer at pH 7.2. After removing the supernatant, enzyme stock solution was added to the hydroxyapatite dispersion to a final concentration of 10 μM and incubated for 30 min in a microcentrifuge tube with gentle agitation. Each sample was centrifuged for 1 min at 10000 rpm. The supernatant was removed and additional buffer was added. The particles were resuspended and transferred to a new tube. The process was repeated two additional times. The hydroxyapatite bound enzyme activity was measured by adding a 500 μl solution containing 100 mM triacetin, 100 mM H2O2 in 100 mM phosphate buffer, pH 7.2. The solution was incubated for 30 min, at 37° C. An aliquot was removed and mixed with H3PO4 and properly diluted for detection via ABTS oxidation as described in Example 7. The experiments were performed at different day with no enzyme as control for each experiment.

[4] = Retention of perhydrolase on hydroxyapatite (SDS-PAGE band strength); assay type: binding; conditions: relative to enzyme input = 1
Protocol: Perhydrolase enzymes listed in Table 6 were assessed for binding to hydroxyapatite. A dispersion of hydroxyapatite nanoparticles (Aldrich 677418) was made at 0.5% solids in 10 mM phosphate buffer at pH 7.2. Enzyme stock solution was added to the hydroxyapatite dispersion to a final concentration of 10 μM and incubated for 30 min in a microcentrifuge tube with gentle agitation. Each sample was centrifuged for 5 min at 10000 rpm. The supernatant was removed and additional buffer was added. The particles were resuspended and transferred to a new tube. The process was repeated two additional times. Samples of the original input of enzyme, the supernatant removed from the particles with each wash step and the final particles were prepared for SDS-PAGE analysis by combining 60 μL of sample, 20 μL of LDS buffer and 8 μL of reducing agent (Nu-PAGE). Samples were heated at 85° C. for 10 min. 25 μL of each sample was loaded on a 4-12% BisTris gel (Invitrogen) and run at 115 volts for 1.5 h. The gel was removed and stained with a 1:1 dilution of Simply Blue stain (Invitrogen) overnight and destained for 4 h in deionized water. The gel was analyzed and detection of enzyme in each fraction was estimated based on the presence of a band. The results of the analysis are provided in Table 7 with an indication of the relative strength of each band in the gel compared to the enzyme input (input=1) to determine the strength of binding between the hydroxyapatite surface and each enzyme.

Molecule | Peracetic acid (ppm) On Enamel [1] [ppm] | Peracetic acid (ppm) In Solution [2] [ppm] | Peracetic acid (ppm) [3] [ppm] | Unbound (relative band strength) ([4]; 10 μM enzyme, 0.5% hydroxyapatite, pH 7.2) | HAP Particles (relative band strength) ([4]; enzyme retained on particles after washes) | Wash1 (relative band strength) [4] | Wash2 (relative band strength) [4]
EZ-12: T. maritima C277T variant, untargeted, SEQ ID NO: 437 (protein) MAFFDLPLEELKKYRPERYEEKDFDEFWEETLAESEKFPLDPVFERMESHLKTVEAYDVTFSGYRGQRIKGWLLVPKLEEEKLPCVVQYIGYNGGRGFPHDWLFWPSMGYICFVMDTRGQGSGWLKGDTPDYPEGPVDPQYPGFMTRGILDPRTYYYRRVFTDAVRAVEAAASFPQVDQERIVIAGGSQGGGIALAVSALSKKAKALLCDVPFLCHFRRAVQLVDTHPYAEITNFLKTHRDKEEIVFRTLSYFDGVNFAARAKIPALFSVGLMDNITPPSTVFAAYNYYAGPKEIRIYPYNNHEGGGSFQAVEQVKFLKKLFEKG | 612 | 4918 |  |  |  |  | 
EZ-9: C277S-link1-H6, SEQ ID NO: 430 (protein) MAFFDLPLEELKKYRPERYEEKDFDEFWEETLAESEKFPLDPVFERMESHLKTVEAYDVTFSGYRGQRIKGWLLVPKLEEEKLPCVVQYIGYNGGRGFPHDWLFWPSMGYICFVMDTRGQGSGWLKGDTPDYPEGPVDPQYPGFMTRGILDPRTYYYRRVFTDAVRAVEAAASFPQVDQERIVIAGGSQGGGIALAVSALSKKAKALLCDVPFLCHFRRAVQLVDTHPYAEITNFLKTHRDKEEIVFRTLSYFDGVNFAARAKIPALFSVGLMDNISPPSTVFAAYNYYAGPKEIRIYPYNNHEGGGSFQAVEQVKFLKKLFEKGGPGSGGAGSPGSAGGPGSHHHHHH | 612 | 5499 | 1885.1 | 0.9 | 0.05 | 0.01 | 0.00
EZ-15: C277T-link1-H6, SEQ ID NO: 439 (protein) MAFFDLPLEELKKYRPERYEEKDFDEFWEETLAESEKFPLDPVFERMESHLKTVEAYDVTFSGYRGQRIKGWLLVPKLEEEKLPCVVQYIGYNGGRGFPHDWLFWPSMGYICFVMDTRGQGSGWLKGDTPDYPEGPVDPQYPGFMTRGILDPRTYYYRRVFTDAVRAVEAAASFPQVDQERIVIAGGSQGGGIALAVSALSKKAKALLCDVPFLCHFRRAVQLVDTHPYAEITNFLKTHRDKEEIVFRTLSYFDGVNFAARAKIPALFSVGLMDNITPPSTVFAAYNYYAGPKEIRIYPYNNHEGGGSFQAVEQVKFLKKLFEKGGPGSGGAGSPGSAGGPGSHHHHHH | 631 | 5921 |  |  |  |  | 
EZ-14: C277T-link1-DenP308-H6, SEQ ID NO: 438 (protein) MAFFDLPLEELKKYRPERYEEKDFDEFWEETLAESEKFPLDPVFERMESHLKTVEAYDVTFSGYRGQRIKGWLLVPKLEEEKLPCVVQYIGYNGGRGFPHDWLFWPSMGYICFVMDTRGQGSGWLKGDTPDYPEGPVDPQYPGFMTRGILDPRTYYYRRVFTDAVRAVEAAASFPQVDQERIVIAGGSQGGGIALAVSALSKKAKALLCDVPFLCHFRRAVQLVDTHPYAEITNFLKTHRDKEEIVFRTLSYFDGVNFAARAKIPALFSVGLMDNITPPSTVFAAYNYYAGPKEIRIYPYNNHEGGGSFQAVEQVKFLKKLFEKGGPGSGGAGSPGSAGGPGSTKPPRTPTANTSRPHHNFGSGGGGSPHHHHHH | 1418 | 4689 |  |  |  |  | 
EZ-16: C277T-link1-HC263-H6, SEQ ID NO: 440 (protein) MAFFDLPLEELKKYRPERYEEKDFDEFWEETLAESEKFPLDPVFERMESHLKTVEAYDVTFSGYRGQRIKGWLLVPKLEEEKLPCVVQYIGYNGGRGFPHDWLFWPSMGYICFVMDTRGQGSGWLKGDTPDYPEGPVDPQYPGFMTRGILDPRTYYYRRVFTDAVRAVEAAASFPQVDQERIVIAGGSQGGGIALAVSALSKKAKALLCDVPFLCHFRRAVQLVDTHPYAEITNFLKTHRDKEEIVFRTLSYFDGVNFAARAKIPALFSVGLMDNITPPSTVFAAYNYYAGPKEIRIYPYNNHEGGGSFQAVEQVKFLKKLFEKGGPGSGGAGSPGSAGGPGSPSAQSQLPDKHSGLHERAPQRYGPEPEPEPEPIPEPPKEAPVVIEKPKPKPKPKPKPPAHDHKNQKETHQRHAAGSGGGGSPHHHHHH | 1832 | 6496 |  |  |  |  | 
EZ-17: C277T-link2-H6, SEQ ID NO: 441 (protein) MAFFDLPLEELKKYRPERYEEKDFDEFWEETLAESEKFPLDPVFERMESHLKTVEAYDVTFSGYRGQRIKGWLLVPKLEEEKLPCVVQYIGYNGGRGFPHDWLFWPSMGYICFVMDTRGQGSGWLKGDTPDYPEGPVDPQYPGFMTRGILDPRTYYYRRVFTDAVRAVEAAASFPQVDQERIVIAGGSQGGGIALAVSALSKKAKALLCDVPFLCHFRRAVQLVDTHPYAEITNFLKTHRDKEEIVFRTLSYFDGVNFAARAKIPALFSVGLMDNITPPSTVFAAYNYYAGPKEIRIYPYNNHEGGGSFQAVEQVKFLKKLFEKGGSHHHHHH | 616 | 5360 |  |  |  |  | 
EZ-18: C277T-link1-(GK)5-H6, SEQ ID NO: 442 (protein) MAFFDLPLEELKKYRPERYEEKDFDEFWEETLAESEKFPLDPVFERMESHLKTVEAYDVTFSGYRGQRIKGWLLVPKLEEEKLPCVVQYIGYNGGRGFPHDWLFWPSMGYICFVMDTRGQGSGWLKGDTPDYPEGPVDPQYPGFMTRGILDPRTYYYRRVFTDAVRAVEAAASFPQVDQERIVIAGGSQGGGIALAVSALSKKAKALLCDVPFLCHFRRAVQLVDTHPYAEITNFLKTHRDKEEIVFRTLSYFDGVNFAARAKIPALFSVGLMDNITPPSTVFAAYNYYAGPKEIRIYPYNNHEGGGSFQAVEQVKFLKKLFEKGGPGSGGAGSPGSAGGPGSGKGKGKGKGKHHHHHH | 1158 | 5537 |  |  |  |  | 

From US8663616B2, “Enzymatic peracid generation for use in oral care products” (E I du Pont de Nemours and Company, priority 2010, dated 2014)
